Assay results reported in patent US20050255554A1.

Molecular target: α-amylase
Assay: cell-based or functional assay

“thioredoxin/90-mer ELP/tendamistat fusion protein (from UniProt P01092 31-104)” was tested. Which α-amylase inhibition activity (colorimetric α-amylase inhibition assay) did it give?
Its α-amylase inhibition activity (colorimetric α-amylase inhibition assay) is 2 fold.
